B1: Microphthalmia-associated transcription factor (Homo sapiens), O75030 (parent)
chain: MQSESGIVPDFEVGEEFHEEPKTYYELKSQPLKSSSSAEHPGASKPPISSSSMTSRILLRQQLMREQMQEQERREQQQKLQAAQFMQQRVPVSQTPAINVSVPTTLPSATQVPMEVLKVQTHLENPTKYHIQQAQRQQVKQYLSTTLANKHANQVLSLPCPNQPGDHVMPPVPGSSAPNSPMAMLTLNSNCEKEGFYKFEEQNRAESECPGMNTHSRASCMQMDDVIDDIISLESSYNEEILGLMDPALQMANTLPVSGNLIDLYGNQGLPPPGLTISNSCPANLPNIKRELTACIFPTESEARALAKERQKKDNHNLIERRRRFNINDRIKELGTLIPKSNDPDMRWNKGTILKASVDYIRKLQREQQRAKELENRQKKLEHANRHLLLRIQELEMQARAHGLSLIPSTGLCSPDLVNRIIKQEPVLENCSQDLLQHHADLTCTTTLDLTDGTITFNNNLGTGTEANQAYSVPTKMGSKLEDILMDDTLSPVGVTDPLLSSVSPGASKTSSRRSSMSMEETEHTC

Variants of: B1
Settings: with tfeb_human TFEB

effect of a mutation on the interaction	Variant
with no effect	K289R;K423R

Variants of: B1
Settings: with tfe3_human TFE3, P19532
Sequence of tfe3_human TFE3, P19532 (P19532 whole entry): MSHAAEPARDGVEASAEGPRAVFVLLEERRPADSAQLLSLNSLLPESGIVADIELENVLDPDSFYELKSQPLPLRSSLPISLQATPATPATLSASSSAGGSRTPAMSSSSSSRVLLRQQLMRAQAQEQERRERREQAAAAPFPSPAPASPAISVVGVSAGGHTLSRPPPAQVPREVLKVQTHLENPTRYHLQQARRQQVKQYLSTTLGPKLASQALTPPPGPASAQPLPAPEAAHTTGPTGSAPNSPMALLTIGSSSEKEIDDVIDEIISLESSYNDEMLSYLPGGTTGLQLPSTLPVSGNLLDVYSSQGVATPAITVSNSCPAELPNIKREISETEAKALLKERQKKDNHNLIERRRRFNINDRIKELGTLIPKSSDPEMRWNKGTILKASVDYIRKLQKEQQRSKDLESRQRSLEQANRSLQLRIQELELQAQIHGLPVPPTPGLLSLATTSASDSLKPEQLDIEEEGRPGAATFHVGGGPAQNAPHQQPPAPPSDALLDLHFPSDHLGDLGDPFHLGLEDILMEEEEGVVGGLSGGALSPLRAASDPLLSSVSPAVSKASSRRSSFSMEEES

effect of a mutation on the interaction	Variant
with no effect	K289R;K423R
